Here are results for two substances from publication PMC4355161.

Where two headings read alike, the source gives them in different places.

The target in assay [1] is 30/30 nucleosomes labeled with Cy3 on H4 A15C (UniProt P62799). In words: other fluorescence titration.
The target of assay [2] is 0/20 Cy3 DNA(+20) nucleosomes. Put plainly: FRET or BRET.
Assay [3] deals with 0/20 H2A T11C-Cy3 nucleosomes (UniProt P06897). Put plainly: FRET or BRET.
Assay [4] deals with 0/20 Cy3 DNA(−25) nucleosomes. Put plainly: FRET or BRET.
Assay [5] concerns the target 0/20 Cy3 DNA(+20) nucleosomes. Put plainly: FRET or BRET. The source holds these as a separate data set.
Assay [6] addresses 0/20 H2A T11C-Cy3 nucleosomes (UniProt P06897). Put plainly: FRET or BRET. The source holds these as a separate data set.
In assay [7] the target is 0/20 Cy3 DNA(−25) nucleosomes. Put plainly: FRET or BRET. The source holds these as a separate data set.

On to “wild type SNF2h (from UniProt O60264 1-1052) (enzyme)”, for which, in assay [1], the fold preference over core nucleosomes amounted to 4.9 fold and the fold tighter binding than to core nucleosomes worked out at 2.1 fold.

In the case of “SNF2h A930C-Cy5 (from UniProt O60264 1-729; O60264 730-1052) (enzyme)”, the FRET ratio came out at 0.34 in assay [2]; 0.56 in assay [3]; 0.49 in assay [4]; 0.51 in assay [5]; 0.39 in assay [6]; 0.4 in assay [7].
